Reference: patent US20240261333A1, “NOVEL TARGETS FOR ENHANCING ANTI-TUMOR IMMUNITY” (THE BROAD INSTITUTE, INC., priority 2021, published 2024)

Legend:
[1] = molecular target: SERPINE2 (UniProt P07093); test: co-IP, anti-FLAG, lysate of C-FLAG B3GNT2 cells, mass spectrometry
[2] = molecular target: RAB1B (UniProt Q9H0U4); test: as above
[3] = molecular target: RNASE1 (UniProt P07998); test: as above
[4] = molecular target: TRIM28 (UniProt Q13263); test: as above
[5] = molecular target: DPM1 (UniProt O60762); test: as above
[6] = molecular target: LOXL4 (UniProt Q96JB6); test: as above
[7] = molecular target: RPL29 (UniProt P47914); test: as above
[8] = molecular target: SLC25A1 (UniProt P53007); test: as above
[9] = molecular target: RBMX (UniProt P38159); test: as above
[10] = molecular target: OS9 (UniProt Q13438); test: as above
[11] = molecular target: ABCF1 (UniProt Q8NE71); test: as above
Sequence of ABCF1 (Q8NE71 whole entry): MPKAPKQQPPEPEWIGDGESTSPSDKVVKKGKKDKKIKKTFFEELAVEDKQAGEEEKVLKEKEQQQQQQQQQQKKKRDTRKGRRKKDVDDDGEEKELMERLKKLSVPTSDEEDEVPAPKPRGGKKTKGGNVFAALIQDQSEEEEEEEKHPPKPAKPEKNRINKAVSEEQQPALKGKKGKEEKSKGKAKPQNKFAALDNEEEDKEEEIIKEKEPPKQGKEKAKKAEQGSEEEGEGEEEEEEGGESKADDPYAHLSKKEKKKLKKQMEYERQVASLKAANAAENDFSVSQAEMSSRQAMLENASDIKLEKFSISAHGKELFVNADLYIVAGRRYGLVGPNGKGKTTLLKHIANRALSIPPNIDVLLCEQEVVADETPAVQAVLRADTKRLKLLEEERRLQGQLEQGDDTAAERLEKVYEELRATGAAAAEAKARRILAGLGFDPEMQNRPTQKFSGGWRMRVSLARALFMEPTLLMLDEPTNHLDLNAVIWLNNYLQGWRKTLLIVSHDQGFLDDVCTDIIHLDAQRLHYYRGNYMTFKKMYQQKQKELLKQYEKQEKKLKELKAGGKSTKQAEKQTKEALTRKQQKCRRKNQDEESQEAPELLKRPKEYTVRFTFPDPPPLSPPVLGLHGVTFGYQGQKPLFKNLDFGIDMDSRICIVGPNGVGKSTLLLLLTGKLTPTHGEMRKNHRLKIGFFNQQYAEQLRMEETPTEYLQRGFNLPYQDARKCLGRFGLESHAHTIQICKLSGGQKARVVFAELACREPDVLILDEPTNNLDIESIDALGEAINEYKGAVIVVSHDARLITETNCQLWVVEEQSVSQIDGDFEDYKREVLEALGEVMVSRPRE

[12] = molecular target: SLC25A10 (UniProt Q9UBX3); test: as above
[13] = molecular target: GNAS (UniProt Q5JWF2); test: as above
[14] = molecular target: CSPG4 (UniProt Q6UVK1); test: as above
[15] = molecular target: PPIB (UniProt P23284); test: as above
Sequence of PPIB (P23284 34-216 limits assumed): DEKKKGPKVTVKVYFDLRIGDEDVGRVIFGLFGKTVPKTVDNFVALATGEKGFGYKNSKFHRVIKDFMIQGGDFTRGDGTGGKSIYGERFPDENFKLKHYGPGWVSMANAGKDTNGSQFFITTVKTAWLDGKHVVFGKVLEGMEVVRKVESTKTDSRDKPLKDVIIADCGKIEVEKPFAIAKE

[16] = molecular target: TM9SF3 (UniProt Q9HD45); test: as above
Sequence of TM9SF3 (Q9HD45 29-589 limits assumed): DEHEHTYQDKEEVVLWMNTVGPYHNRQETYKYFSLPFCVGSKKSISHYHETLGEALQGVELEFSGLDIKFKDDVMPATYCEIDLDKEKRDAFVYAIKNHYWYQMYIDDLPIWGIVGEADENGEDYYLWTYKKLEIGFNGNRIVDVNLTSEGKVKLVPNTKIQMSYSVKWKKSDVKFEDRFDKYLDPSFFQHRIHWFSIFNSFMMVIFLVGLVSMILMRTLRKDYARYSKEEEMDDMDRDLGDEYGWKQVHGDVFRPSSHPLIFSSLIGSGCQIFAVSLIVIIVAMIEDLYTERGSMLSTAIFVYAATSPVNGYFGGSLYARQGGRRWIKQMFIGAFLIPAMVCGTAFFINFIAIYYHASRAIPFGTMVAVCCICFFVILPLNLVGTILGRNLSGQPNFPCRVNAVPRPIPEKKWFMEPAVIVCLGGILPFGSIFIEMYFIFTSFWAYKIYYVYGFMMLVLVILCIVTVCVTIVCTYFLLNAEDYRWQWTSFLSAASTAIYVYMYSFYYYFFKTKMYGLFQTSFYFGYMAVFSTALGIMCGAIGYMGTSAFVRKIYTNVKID

[17] = molecular target: GEMIN4 (human) (UniProt P57678); test: co-IP with anti-FLAG, C-FLAG B3GNT2, mass spectrometry
Sequence of GEMIN4 (human) (P57678 whole entry): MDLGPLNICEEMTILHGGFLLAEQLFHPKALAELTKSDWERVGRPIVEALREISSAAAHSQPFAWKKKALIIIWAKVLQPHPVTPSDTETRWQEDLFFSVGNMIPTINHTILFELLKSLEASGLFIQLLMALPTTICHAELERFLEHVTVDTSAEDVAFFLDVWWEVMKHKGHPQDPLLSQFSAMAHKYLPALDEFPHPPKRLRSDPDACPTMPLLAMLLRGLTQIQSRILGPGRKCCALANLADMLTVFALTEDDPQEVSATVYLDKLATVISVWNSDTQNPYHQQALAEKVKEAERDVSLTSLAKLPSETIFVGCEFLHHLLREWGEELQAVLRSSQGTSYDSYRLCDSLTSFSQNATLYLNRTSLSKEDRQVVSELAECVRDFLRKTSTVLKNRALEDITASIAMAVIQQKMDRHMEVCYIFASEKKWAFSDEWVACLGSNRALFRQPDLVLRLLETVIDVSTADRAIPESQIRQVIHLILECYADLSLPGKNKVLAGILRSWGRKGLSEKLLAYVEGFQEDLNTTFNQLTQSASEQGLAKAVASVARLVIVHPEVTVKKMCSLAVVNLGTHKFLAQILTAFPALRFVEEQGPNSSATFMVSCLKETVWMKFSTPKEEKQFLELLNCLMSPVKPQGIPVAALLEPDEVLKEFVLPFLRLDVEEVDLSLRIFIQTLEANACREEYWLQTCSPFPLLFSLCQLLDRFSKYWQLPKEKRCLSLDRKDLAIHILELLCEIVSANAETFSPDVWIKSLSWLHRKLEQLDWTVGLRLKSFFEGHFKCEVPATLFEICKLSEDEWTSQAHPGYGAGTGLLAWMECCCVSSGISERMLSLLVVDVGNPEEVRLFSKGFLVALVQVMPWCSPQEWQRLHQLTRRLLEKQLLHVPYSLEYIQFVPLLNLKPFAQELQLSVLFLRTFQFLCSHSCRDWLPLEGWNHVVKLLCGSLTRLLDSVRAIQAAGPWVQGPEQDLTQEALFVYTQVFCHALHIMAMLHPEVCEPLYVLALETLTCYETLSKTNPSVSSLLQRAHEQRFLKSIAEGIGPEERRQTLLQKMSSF

[18] = molecular target: PPFIBP1 (human) (UniProt Q86W92); test: as above
[19] = molecular target: CALML5 (human) (UniProt Q9NZT1); test: as above
[20] = molecular target: T1, YTHDF2 (human) (UniProt Q9Y5A9); test: as above
T1 sequence (looked up): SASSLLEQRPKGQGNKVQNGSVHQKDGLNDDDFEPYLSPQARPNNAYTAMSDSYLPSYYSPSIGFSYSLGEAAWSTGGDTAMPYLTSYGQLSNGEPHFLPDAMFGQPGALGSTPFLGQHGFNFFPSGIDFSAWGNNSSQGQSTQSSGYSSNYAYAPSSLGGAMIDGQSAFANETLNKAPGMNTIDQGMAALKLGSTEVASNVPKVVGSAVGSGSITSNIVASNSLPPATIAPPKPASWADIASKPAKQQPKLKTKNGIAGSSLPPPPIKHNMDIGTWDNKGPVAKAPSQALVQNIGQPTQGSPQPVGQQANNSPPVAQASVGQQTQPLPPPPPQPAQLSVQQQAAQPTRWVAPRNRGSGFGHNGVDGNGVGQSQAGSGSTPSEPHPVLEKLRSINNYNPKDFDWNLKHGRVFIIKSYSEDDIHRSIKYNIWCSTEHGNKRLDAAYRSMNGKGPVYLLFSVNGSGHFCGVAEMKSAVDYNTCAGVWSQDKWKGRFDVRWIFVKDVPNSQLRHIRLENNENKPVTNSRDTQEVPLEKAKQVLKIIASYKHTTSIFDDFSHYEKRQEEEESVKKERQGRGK

[21] = molecular target: MMP14 (human) (UniProt P50281); test: as above
[22] = molecular target: RBM14 (human) (UniProt Q96PK6); test: as above
[23] = molecular target: CCT3 (human) (UniProt P49368); test: as above
Sequence of CCT3 (human) (P49368 whole entry): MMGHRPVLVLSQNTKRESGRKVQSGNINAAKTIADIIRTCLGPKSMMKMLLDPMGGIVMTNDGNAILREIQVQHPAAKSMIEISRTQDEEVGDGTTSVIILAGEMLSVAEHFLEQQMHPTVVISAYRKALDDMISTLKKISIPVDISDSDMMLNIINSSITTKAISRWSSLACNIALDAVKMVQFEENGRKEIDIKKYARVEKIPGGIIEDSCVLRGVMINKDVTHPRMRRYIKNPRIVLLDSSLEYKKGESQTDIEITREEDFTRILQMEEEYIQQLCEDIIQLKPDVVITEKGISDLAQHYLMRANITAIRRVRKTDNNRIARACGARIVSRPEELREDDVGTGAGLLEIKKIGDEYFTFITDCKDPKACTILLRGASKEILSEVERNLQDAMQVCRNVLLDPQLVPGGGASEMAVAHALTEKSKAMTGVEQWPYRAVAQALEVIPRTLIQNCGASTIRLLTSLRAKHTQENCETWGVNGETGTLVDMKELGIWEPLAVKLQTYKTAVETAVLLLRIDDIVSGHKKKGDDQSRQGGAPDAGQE

[24] = molecular target: TPM3 (human) (UniProt P06753); test: as above
Sequence of TPM3 (human) (P06753 other isoform, or with tags, fused parts or gaps limits assumed): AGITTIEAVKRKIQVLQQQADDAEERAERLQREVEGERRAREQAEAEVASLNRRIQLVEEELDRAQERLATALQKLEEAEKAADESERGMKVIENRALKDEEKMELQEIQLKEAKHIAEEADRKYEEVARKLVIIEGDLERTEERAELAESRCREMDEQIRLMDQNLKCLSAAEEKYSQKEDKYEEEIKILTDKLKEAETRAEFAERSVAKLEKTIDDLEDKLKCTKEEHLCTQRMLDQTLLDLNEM

[25] = molecular target: XPOT (human) (UniProt O43592); test: as above
Sequence of XPOT (human) (O43592 whole entry): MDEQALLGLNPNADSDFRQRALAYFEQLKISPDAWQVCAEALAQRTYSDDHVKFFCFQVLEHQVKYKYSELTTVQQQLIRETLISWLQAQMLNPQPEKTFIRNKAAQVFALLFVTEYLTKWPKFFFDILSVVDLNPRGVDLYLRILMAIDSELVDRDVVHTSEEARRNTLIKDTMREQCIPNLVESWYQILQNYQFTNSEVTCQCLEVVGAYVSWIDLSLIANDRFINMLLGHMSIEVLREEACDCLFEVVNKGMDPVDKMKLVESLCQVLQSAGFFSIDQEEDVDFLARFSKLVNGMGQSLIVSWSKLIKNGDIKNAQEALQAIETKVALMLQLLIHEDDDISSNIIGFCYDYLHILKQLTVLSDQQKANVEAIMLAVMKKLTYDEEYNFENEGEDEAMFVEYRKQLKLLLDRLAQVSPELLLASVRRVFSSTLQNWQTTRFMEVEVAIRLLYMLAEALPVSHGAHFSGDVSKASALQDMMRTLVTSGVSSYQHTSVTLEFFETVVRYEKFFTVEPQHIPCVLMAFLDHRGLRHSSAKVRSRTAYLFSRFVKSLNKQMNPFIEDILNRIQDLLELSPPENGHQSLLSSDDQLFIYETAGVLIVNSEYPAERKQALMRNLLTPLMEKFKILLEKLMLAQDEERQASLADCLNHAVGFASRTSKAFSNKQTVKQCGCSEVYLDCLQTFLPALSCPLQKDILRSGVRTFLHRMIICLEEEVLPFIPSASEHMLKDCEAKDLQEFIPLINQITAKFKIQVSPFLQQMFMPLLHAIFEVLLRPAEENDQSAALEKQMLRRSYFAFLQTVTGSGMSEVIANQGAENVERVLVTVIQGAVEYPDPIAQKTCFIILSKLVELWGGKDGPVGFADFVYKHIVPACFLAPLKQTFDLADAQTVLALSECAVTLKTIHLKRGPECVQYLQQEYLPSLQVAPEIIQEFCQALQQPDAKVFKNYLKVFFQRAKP

[26] = molecular target: SERPINB3 (human) (UniProt P29508); test: as above
[27] = molecular target: LCN1 (human) (UniProt P31025); test: as above
[28] = molecular target: P4HA2 (human) (UniProt O15460); test: as above
[29] = molecular target: RPL6 (human) (UniProt Q02878); test: as above
[30] = molecular target: MAP4 (human) (UniProt P27816); test: as above
[31] = molecular target: LUC7L3 (human) (UniProt O95232); test: as above
[32] = molecular target: NAP1L1 (human) (UniProt P55209); test: as above
[33] = molecular target: EMILIN1 (human) (UniProt Q9Y6C2); test: as above

Sequence of SERPINE2 (P07093 20-398 limits assumed): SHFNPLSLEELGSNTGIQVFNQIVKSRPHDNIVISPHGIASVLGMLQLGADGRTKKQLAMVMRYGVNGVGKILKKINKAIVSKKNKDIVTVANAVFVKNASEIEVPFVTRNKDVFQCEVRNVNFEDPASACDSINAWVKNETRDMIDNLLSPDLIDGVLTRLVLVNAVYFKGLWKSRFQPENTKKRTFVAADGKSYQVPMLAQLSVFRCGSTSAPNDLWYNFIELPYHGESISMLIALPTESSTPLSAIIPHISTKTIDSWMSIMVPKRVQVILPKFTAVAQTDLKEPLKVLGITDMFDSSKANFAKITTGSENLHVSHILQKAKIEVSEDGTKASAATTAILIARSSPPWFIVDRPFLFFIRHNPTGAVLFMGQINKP
Sequence of RNASE1 (P07998 29-156 limits assumed): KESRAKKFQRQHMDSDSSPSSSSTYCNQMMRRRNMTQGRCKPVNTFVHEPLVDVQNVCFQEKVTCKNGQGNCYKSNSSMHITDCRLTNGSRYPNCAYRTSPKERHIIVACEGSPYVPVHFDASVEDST

“C-terminal FLAG tagged B3GNT2 (from UniProt Q9NY97 1-397) (enzyme)” gave a co-IP/MS count [1] of 11, a co-IP/MS count [2] of 2 and a co-IP/MS count [3] of 2. It also gave a co-IP/MS count [4] of 8, a co-IP/MS count [5] of 8 and a co-IP/MS count [6] of 8. It also gave a co-IP/MS count [7] of 6, a co-IP/MS count [8] of 8 and a co-IP/MS count [9] of 2. The co-IP/MS count [10] was 9, the co-IP/MS count [11] was 2 and the co-IP/MS count [12] was 6. The co-IP/MS count [13] was 2, the co-IP/MS count [14] was 12 and the co-IP/MS count [15] was 2. The co-IP/MS count [16] was 11, the co-IP mass spectrometry count [17] was 5 and the co-IP mass spectrometry count [18] was 3. It also gave a co-IP mass spectrometry count [19] of 4, a co-IP mass spectrometry count [20] of 4 and a co-IP/MS count, C-term flag [21] of 2. For the same substance, the co-IP/MS count, C-term flag [22] was 2, the co-IP mass spectrometry count [23] was 5 and the co-IP mass spectrometry count [24] was 5. The co-IP/MS count, C-term flag [25] was 2, the co-IP mass spectrometry count [26] was 9 and the co-IP mass spectrometry count [27] was 11. For the same substance, the co-IP/MS count, C-term flag [28] was 4, the co-IP/MS count, C-term flag [29] was 20 and the co-IP mass spectrometry count [30] was 5. The co-IP/MS count, C-term flag [31] was 3, the co-IP/MS count, C-term flag [32] was 4 and the co-IP mass spectrometry count [33] was 3.
